Drawing on the Immune Epitope Database (IEDB), this text covers Kd for 36 sequences.

Holding throughout (assay): IEDB peptide-MHC binding, purified MHC/competitive/radioactivity; filed as Kd, often an IC50 or EC50 that approximates it; ≥ and ≤ were set here for values at or beyond the usual limits of such assays
The target of test [1] is HLA-A*31:01.
In test [2] the target is HLA-A*11:01.
Test [3] deals with HLA-A*03:01.
The target of test [4] is HLA-A*33:01.
In test [5] the target is HLA-A*68:01.
Where [6] appears, read: source organism: Vaccinia virus WR.
[7] abbreviates: source organism: Dengue virus 4 Philippines/H241/1956.
[8] abbreviates: source organism: Dengue virus 3 Singapore/8120/1995.
The mark [9] stands for this setting: source organism: SARS coronavirus Tor2.
[10] abbreviates: source organism: Dengue virus 1 Brazil/97-11/1997.
Setting [11] is: source organism: Dengue virus 3 Martinique/1243/1999.
Setting [12] is: source organism: Dengue virus 4 Dominica/814669/1981.
Setting [13] is: source organism: Dengue virus 2 Jamaica/1409/1983.
The mark [14] stands for this setting: source organism: Mammarenavirus guanaritoense.

A word on the Kd: it is a measure of binding affinity in units of concentration.

With KSLLLLNTR, the Kd was found to be 0.627 nM in test [1] (setting [6]); 114 nM in test [2] (setting [6]); 689 nM in test [3] (setting [6]); 1160 nM in test [4] (setting [6]); 16900 nM in test [5] (setting [6]).
EMGANFRAGR: the equilibrium dissociation constant (Kd) in test [1] (setting [7]) stood at 67.3 nM; in test [4] (setting [7]), 7.51 nM.
For the sequence AATIQTPTK, the dissociation constant (Kd) was determined as 137 nM in test [1] (setting [6]); 9.51 nM in test [2] (setting [6]); 4120 nM in test [3] (setting [6]); 1260 nM in test [4] (setting [6]); 1670 nM in test [5] (setting [6]).
Regarding ATLAFHLTSR, the Kd in test [1] (setting [8]) was 2.69 nM; in test [5] (setting [8]), 50.9 nM.
As for AVRAFLLRHY, the Kd in test [1] (setting [6]) was 5240 nM; in test [2] (setting [6]), 1070 nM; in test [3] (setting [6]), 862 nM; in test [4] (setting [6]), at least 70000 nM; in test [5] (setting [6]), at least 29500 nM.
ELALTDVEKR: the dissociation constant (Kd) was 11800 nM in test [1] (setting [6]); at least 69800 nM in test [2] (setting [6]); at least 68800 nM in test [3] (setting [6]); 16800 nM in test [4] (setting [6]); 149 nM in test [5] (setting [6]).
For YTIERIFNAK the same measures were 3550 nM, 36.2 nM, 231 nM, 875 nM and 10.3 nM.
Take RQLFKPLTKK: the dissociation constant Kd in test [1] (setting [9]) worked out at 383 nM; in test [2] (setting [9]), 8.16 nM; in test [3] (setting [9]) it was 1.05 nM; in test [4] (setting [9]) it was 3670 nM; in test [5] (setting [9]), 2130 nM.
TLVPVLEKK: the Kd came to 332 nM in test [1] (setting [6]); 15.9 nM in test [2] (setting [6]); 237 nM in test [3] (setting [6]); 14000 nM in test [4] (setting [6]); 117 nM in test [5] (setting [6]).
For STVKTNLYMK, in that order: 640 nM, 3.96 nM, 212 nM, at least 70000 nM and 2.27 nM.
For the sequence GSSADLSLEK, the equilibrium dissociation constant (Kd) in test [2] (setting [10]) worked out at 76 nM.
Turning to ITANPVVTKK, the Kd in test [2] (setting [11]) amounted to 84.6 nM; in test [5] (setting [11]), 23.9 nM.
With ALTPPVSDLK, in test [3] (setting [12]), the equilibrium dissociation constant (Kd) worked out at 86.9 nM.
With GYVLGIFLR, the values for the dissociation constant (Kd) in test [1] (setting [7]) and in test [4] (setting [7]) were 15.7 nM and 39.8 nM, respectively.
Take DAIDGEYRLR: the Kd was found to be 246 nM in test [4] (setting [13]) and 17.1 nM in test [5] (setting [13]).
Turning to ATTVITPMLR, the values for the equilibrium dissociation constant (Kd) in test [1] (setting [11]), in test [2] (setting [11]) and in test [5] (setting [11]) were 163 nM, 222 nM and 47.2 nM, respectively.
Turning to AIFKLTYQNK, the Kd in test [2] (setting [13]) worked out at 57.5 nM; in test [3] (setting [13]), 41.4 nM.
In the case of KKSKAINVLR, in test [1] (setting [13]), the Kd was determined as 163 nM.
As for NIVMLHTTER, the Kd in test [4] (setting [7]) was 83.8 nM; in test [5] (setting [7]) it was 16.9 nM.
Turning to KWLWGFLSR, the equilibrium dissociation constant (Kd) in test [1] (setting [10]) was at least 77900 nM.
Turning to VMAFHLSTR, in test [1] (source organism: Dengue virus 4 Thailand/0348/1991), the Kd stood at 9.39 nM.
As for DTMTYKCPR, the dissociation constant (Kd) was 4880 nM in test [1] (setting [10]), 6.64 nM in test [4] (setting [10]) and 67.1 nM in test [5] (setting [10]).
On to QAIDGEFRLR, for which the dissociation constant Kd in test [5] (setting [7]) was 15.5 nM.
Consider IAVSMANIFR, for which the dissociation constant (Kd) in test [1] (setting [13]) was determined as 37.4 nM; in test [4] (setting [13]), 279 nM; in test [5] (setting [13]) it was 17.3 nM.
Consider EDKAWLVHR, for which, in test [4] (setting [13]), the Kd was 15.6 nM.
In the case of FESLFKCLSH, the Kd in test [1] (setting [14]) is 608 nM; in test [3] (setting [14]), 5530 nM; in test [4] (setting [14]), 2750 nM.
Regarding MVLLQMENK, the dissociation constant (Kd) in test [2] (source organism: Dengue virus 2 Thailand/NGS-C/1944) was found to be 227 nM.
As to KLVTQWCCR, the equilibrium dissociation constant (Kd) in test [1] (setting [7]) amounted to 11.9 nM.
As for AIKILIGFRK, the Kd in test [2] (setting [12]) stood at 432 nM; in test [3] (setting [12]), 215 nM.
As for ITENKIWGR, the dissociation constant (Kd) in test [4] (source organism: Dengue virus 1 Nauru/West Pac/1974) is 141 nM.
With VTRLENLMWK, in test [2] (setting [13]), the Kd was 128 nM.
WYMWQVKTQR: the dissociation constant Kd in test [4] (setting [7]) was 2.54 nM.
Regarding IQKITVFNK, the dissociation constant Kd in test [5] (setting [6]) was at least 30300 nM.
Take IVSSVNTTSK: the values for the Kd in test [2] (setting [7]) and in test [3] (setting [7]) were 234 nM and 37.2 nM, respectively.
For HLAIMAVFK, the Kd was determined as 5.77 nM in test [3] (setting [7]) and 70.6 nM in test [5] (setting [7]).
As to MLINRFTMK, the equilibrium dissociation constant (Kd) stood at 116 nM in test [2] (setting [13]) and 3.57 nM in test [3] (setting [13]).
